Patent publication US20100047253A1

Experiments:
[1] = target: IL-13 variant IL-13Q110R (human) (UniProt P35225); test: cell-based or functional assay
[2] = target: IL-13 variant IL-13Q110R (human) (UniProt P35225); test: SPR (Biacore 2000), mAb captured on goat anti-human surface, IL-13 variant (Peprotech) 23.6-0.185 nM, 1:1 model
[3] = target: human IL-13 (source not stated for the assay) (human) (UniProt P35225); test: cell-based or functional assay
human IL-13 (source not stated for the assay) (human), sequence (P35225 35-146 limits assumed): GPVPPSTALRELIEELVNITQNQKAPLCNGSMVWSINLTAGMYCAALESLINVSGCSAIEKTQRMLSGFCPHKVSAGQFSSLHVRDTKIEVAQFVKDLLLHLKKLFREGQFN

IL-13 variant IL-13Q110R (human), sequence (P35225 33-146, stated change not applied): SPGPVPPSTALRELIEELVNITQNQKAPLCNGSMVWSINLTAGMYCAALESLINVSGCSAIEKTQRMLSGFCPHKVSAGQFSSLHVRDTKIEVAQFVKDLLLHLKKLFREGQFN

IC50, eotaxin production by HDFa cells, 300 pM IL-13Q110R [1] [pM]	IC50, eotaxin production by HDFa cells, 600 pM IL-13Q130R [1] [pM]	Kd [2] [nM]	koff [2] [s⁻¹]	kon [2] [M⁻¹ s⁻¹]	EC50, HDLM-2 proliferation assay (3H-thymidine) [3] [nM]	EC50, L-1236 proliferation assay (3H-thymidine) [3] [nM]	IC50, IL-13-induced CD23 expression on whole blood B cells (FACS) [3] [nM]	IC50, IL-13 induced eotaxin release, Average [3] [nM]	IC50, IL-13 induced eotaxin release, n = 1 [3] [nM]	IC50, IL-13 induced eotaxin release, n = 2 [3] [nM]	IC50, IL-13 induced eotaxin release, n = 3 [3] [nM]	Binder
								0.032	0.029	0.039	0.029	murine IL-13 receptor α2/FC (Fc fusion, mouse, UniProt O88786 22-334, looked up, not shown: a dimerising Fc or GST) LEIKVNPPQDFEILDPGLLGYLYLQWKPPVVIEKFKGCTLEYELKYRNVDSDSWKTIITRNLIYKDGFDLNKGIEGKIRTHLSEHCTNGSEVQSPWIEASYGISDEGSLETKIQDMKCIYYNWQYLVCSWKPGKTVYSDTNYTMFFWYEGLDHALQCADYLQHDEKNVGCKLSNLDSSDYKDFFICVNGSSKLEPIRSSYTVFQLQNIVKPLPPEFLHISVENSIDIRMKWSTPGGPIPPRCYTYEIVIREDDISWESATDKNDMKLKRRANESEDLCFFVRCKVNIYCADDGIWSEWSEEECWEGYTGPDSK
54	140	0.0098	5.02e-05	5.11e+06								mAb 731 (antibody, V domains shown) VH: EVQLLESGGGLVQPGGSLRLSCAASGFTFSSYAMSWVRQAPGKGLEWVSAFSGSGGSTYYADSVKGRFTISRDNSKNTLYLQMNSLRAEDTAVYYCVQDGLGPYFYNYGMDVWGQGTTVTVSS VL: SYELTQPPSVSVSPGQTASITCSGDKLGDKYACWFQQKPGQSPVLVIYHDSKRPSGIPERFSGSNSGDTATLTISGTQAMDEADYYCQAWDSSTYVFGTGTKVTVLG

Second part, the binder before the results:

Binder	IC50, eotaxin production by HDFa cells, 300 pM IL-13Q110R [1] [pM]	IC50, eotaxin production by HDFa cells, 600 pM IL-13Q130R [1] [pM]	Kd [2] [nM]	koff [2] [s⁻¹]	kon [2] [M⁻¹ s⁻¹]	EC50, HDLM-2 proliferation assay (3H-thymidine) [3] [nM]	EC50, L-1236 proliferation assay (3H-thymidine) [3] [nM]	IC50, IL-13-induced CD23 expression on whole blood B cells (FACS) [3] [nM]	IC50, IL-13 induced eotaxin release, Average [3] [nM]	IC50, IL-13 induced eotaxin release, n = 1 [3] [nM]	IC50, IL-13 induced eotaxin release, n = 2 [3] [nM]	IC50, IL-13 induced eotaxin release, n = 3 [3] [nM]
mAb 623 (antibody, V domains shown) VH: EVQLVESGGGLVKPGGSLRLSCAASGFTFSNAWMSWVRQAPGKGLEWVGRIRSEIDGGTTNYAAPVKGRFTISRDDSKNTLYLQMNSLKTEDTAVYYCATDQVGAYYGDYYGMDVWGQGTTVTVSS VL: SYELTQPPSVSVSPGQTARITCSGDALPEKYAYWYQQKSGQAPVLVIYEDSKRPSGIPERFSGSSSGTMATLTISGAQVEDEADYYCHSTDSSGNHGVFGGGTKLTVLG	106	277	0.0388	0.000218	5.62e+06							
human IL-13 receptor α2/Fc (Fc fusion, UniProt Q14627 27-343, looked up, not shown: a dimerising Fc or GST) DTEIKVNPPQDFEIVDPGYLGYLYLQWQPPLSLDHFKECTVEYELKYRNIGSETWKTIITKNLHYKDGFDLNKGIEAKIHTLLPWQCTNGSEVQSSWAETTYWISPQGIPETKVQDMDCVYYNWQYLLCSWKPGIGVLLDTNYNLFYWYEGLDHALQCVDYIKADGQNIGCRFPYLEASDYKDFYICVNGSSENKPIRSSYFTFQLQNIVKPLPPVYLTFTRESSCEIKLKWSIPLGPIPARCFDYEIEIREDDTTLVTATVENETYTLKTTNETRQLCFVVRSKVNIYCSDDGIWSEWSDKQCWEGEDLSKKTLLR						0.6	0.059	4	0.131	0.128	0.147	0.119
